Measured values as given in patent US20170106084A1 (Hoffmann-La Roche, published 2017).
Changes are numbered by the printed parent chain. Values belong to the binder of their own block, whether it stands above or below them. Square brackets hold non-standard residues; d marks the D form. Ends that are not written are not given here. pS = N[C@@H](COP(=O)(O)O)C(=O)O

Columns and labels:
[1] = molecular target: T1, human tau(pS422) fragment SEQ ID NO: 03 (human, also: biotinylated); assay: ELISA, coated antigen
T1 construct: also called phosphorylated tau peptide
T1 peptide: SIDMVD[pS]PQLATLAD

[2] = molecular target: T2, tau peptide residues 416 to 430 of SEQ ID NO: 01 (human, also: biotinylated, site not given here); assay: ELISA, coated antigen
T2 construct: also called non-phosphorylated tau peptide
T2 peptide: SIDMVDSPQLATLAD

[3] = molecular target: full length human tau S422A mutant (human, UniProt P10636 2-758); assay: ELISA, coated antigen
Sequence of full length human tau S422A mutant (P10636 other isoform, or with tags, fused parts or gaps S422A S422A limits assumed): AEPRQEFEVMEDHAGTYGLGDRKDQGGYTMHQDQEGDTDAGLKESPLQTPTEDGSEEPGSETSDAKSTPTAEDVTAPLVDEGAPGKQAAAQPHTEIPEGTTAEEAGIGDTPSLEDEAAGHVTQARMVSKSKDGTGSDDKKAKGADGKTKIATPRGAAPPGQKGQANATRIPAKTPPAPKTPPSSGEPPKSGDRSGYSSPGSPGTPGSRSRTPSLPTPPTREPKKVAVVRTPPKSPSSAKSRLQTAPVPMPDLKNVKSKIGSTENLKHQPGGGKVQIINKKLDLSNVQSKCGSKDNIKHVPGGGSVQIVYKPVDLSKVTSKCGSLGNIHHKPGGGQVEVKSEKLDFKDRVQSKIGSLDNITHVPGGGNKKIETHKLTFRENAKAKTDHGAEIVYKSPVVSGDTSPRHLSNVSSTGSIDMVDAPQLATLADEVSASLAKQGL

[4] = molecular target: T3, transferrin receptor on hCMEC/D3 cells (UniProt P02786 1-760, limits assumed); assay: transwell assay on hCMEC/D3 cells, huFc ELISA
T3 construct: whole, on cells; also called TfR
T3 sequence (P02786 whole entry): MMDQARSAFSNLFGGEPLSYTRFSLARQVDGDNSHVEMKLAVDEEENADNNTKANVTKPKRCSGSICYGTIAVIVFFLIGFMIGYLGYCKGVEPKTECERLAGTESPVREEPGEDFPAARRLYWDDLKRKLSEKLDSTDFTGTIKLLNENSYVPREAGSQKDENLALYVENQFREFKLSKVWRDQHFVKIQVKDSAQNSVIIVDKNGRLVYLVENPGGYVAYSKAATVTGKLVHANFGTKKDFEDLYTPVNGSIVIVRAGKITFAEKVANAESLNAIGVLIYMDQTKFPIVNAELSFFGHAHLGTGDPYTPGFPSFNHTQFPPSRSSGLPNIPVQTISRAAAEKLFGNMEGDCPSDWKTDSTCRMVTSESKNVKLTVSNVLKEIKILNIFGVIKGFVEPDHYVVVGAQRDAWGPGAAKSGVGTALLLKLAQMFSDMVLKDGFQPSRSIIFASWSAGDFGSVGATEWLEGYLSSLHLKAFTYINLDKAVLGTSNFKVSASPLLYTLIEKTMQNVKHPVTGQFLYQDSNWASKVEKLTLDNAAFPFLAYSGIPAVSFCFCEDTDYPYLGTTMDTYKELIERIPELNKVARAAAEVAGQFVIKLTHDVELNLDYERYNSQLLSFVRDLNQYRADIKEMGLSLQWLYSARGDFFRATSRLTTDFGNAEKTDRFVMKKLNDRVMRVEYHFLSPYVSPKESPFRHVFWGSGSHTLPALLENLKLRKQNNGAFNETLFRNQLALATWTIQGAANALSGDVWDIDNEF

[5] = molecular target: T3, transferrin receptor on hCMEC/D3 cells; assay: transwell assay on hCMEC/D3 cells, huFc ELISA; remark: listed apart in the source
[6] = molecular target: T3, transferrin receptor on hCMEC/D3 cells; assay: transwell assay on hCMEC/D3 cells, IgG ELISA
Protocol: We used brain endothelial cells (hCMEC/D3) to investigate cell binding and transcytosis of the shuttle modules as reported herein. […] Cell monolayers were washed at room temperature in serum-free medium apically (400 μl) and basolaterally (1600 μl) three times for 3-5 minutes each. All wash volumes were collected to monitor efficiency of removal of the unbound ligand or antibody. Pre-warmed medium was added to the apical chamber and the filters transferred to a fresh 12 well plate (blocked overnight with PBS containing 1% BSA) containing 1600 μl pre-warmed medium. At this point, cells were lysed in 500 μl RIPA buffer (Sigma, Munich, Germany, #R0278) in order to determine specific uptakes. The remaining filters were incubated at 37° C. and samples collected at various time points to determine apical and/or basolateral release. The content of antibody in the samples was quantified using a highly sensitive IgG ELISA.

[7] = molecular target: T4, MCAK_Human (88-102)[95-pSer] (human, UniProt Q99661 88-102, also: biotinylated, site not given here); assay: ELISA, single point
T4 construct: also called MCAK phosphopeptide
T4 peptide (looked up): IQKQKRR[pS]VNSKIPA

[8] = molecular target: T1, human tau(pS422) fragment SEQ ID NO: 03; assay: ELISA, ratio of EC50 values
Protocol: (§1) Rabbit monoclonal antibodies were recombinantly expressed in HEK 293 cells. […] Coating with KLH or control peptides was performed at 1 μg/ml. […] After intensive washing, the binding of the rabbit antibodies was detected using a sheep anti-rabbit IgG digoxigenin conjugated detection antibody (Chemicon AQ301D). […] The antibody binding was characterized by its EC50 values. […] Cross-reactivity with KLH or MCAK phosphopeptide was estimated by single-point measurement at high concentrations, i.e. at 1:5 dilution of the cell culture supernatants.

[9] = molecular target: T1, human tau(pS422) fragment SEQ ID NO: 03; assay: ELISA, biotinylated peptide on streptavidin plate
Protocol: as §1

[10] = molecular target: T2, tau peptide residues 416 to 430 of SEQ …; assay: ELISA, biotinylated peptide on streptavidin plate
Protocol: as §1

EC50 [2]: 0.048 µg/mL | EC50 [3]: 0.0174 µg/mL
B2: VH32/VL22 (antibody, V domains shown)
VH: EVQVLESGGGLVQPGGSLRLSCAVSGFSLSSNAINWVRQAPGKGLEWVGYIAVSGNTYYASWAKGRFTISRDNSKNTVYLQMNSLRAEDTAVYYCGKSNIWGQGTLVTVSS
VL: AQVMTQSPSSLSASVGDRVTITCRSSQSVRTNRLAWFQQKPGQPPKRLIYSASTLDYGVPSRFSGSGSGTEFTLTISSLQPEDFATYYCLGYFDSSADIVAFGGGTKVEIK
notes: full size IgG; kappa (59) or lambda (60) light constant not specified

binding result [4]: binds
B3: anti-TfR1 antibody (TfR1) (antibody, V domains shown)
VH: EVQLQQSGPELVKPGASMKISCKASGYSFTGYTMNWVKQSHGENLEWIGRINPHNGGTDYNQKFKDKAPLTVDKSSNTAYMELLSLTSEDSAVYYCARGYYYYSLDYWGQGTSVTVSS
VL: QIVLTQSPAIMSASPGEKVTMTCSASSSIRYIHWYQQRPGTSPKRWIYDTSNLASGVPARFSGSGSGTSYSLTISSMEAEDAATYYCHQRNSYPWTFGGGTRLEIKR
notes: also called parent antibody

EC50 [3]: 0.0479 µg/mL
B7: VH00/VL00 (antibody, V domains shown)
VH: QSVEESGGRLVTPGTPLTLTCTVSGFSLSSNAINWVRQAPGKGLEWIGYIAVSGNTYYASWAKGRFTISKASTTVDLKMTSPTAEDTGTYFCGKSNIWGPGTLVTVSL
VL: AQVLTQTTSPVSAAVGSTVTISCQSSQSVRTNKLAWFQQKPGQPPKRLIYSASTLDFGVPSRFSASGSGTQFTLTISDVQCDDAATYYCLGYFDCSIADCVAFGGGTEVVVK
notes: rabbit variable domains; also called VH00 with VL00 (rabbit antibody); parent rabbit antibody

Continued, binder first:

B1: VH32/VL21 (antibody, V domains shown)
VH: B2 VH
VL: B2 VL with R33K, Y57F
notes: as for B2
EC50 [1]: 0.0044 µg/mL | EC50 [2]: 0.634 µg/mL | EC50 [3]: 0.0215 µg/mL

B4: anti-TfR2 antibody (TfR2) (antibody, V domains shown)
VH: EVQLQQSGPELVKPGASVKMSCKASGYTFTSYVMHWVKQKPGQGLEWIGYVNPYNDDTKYNEKFRGKATLTSDKSSSTAYMELSSLTSEDSAVYYCARSYYYYSMDNWGQGTSVTVSS
VL: B3 VL with M21V, I32M, R38K, N52E, S75N, N91S, W95F, R102K
notes: also called parent antibody
binding result [5]: binds

B5: TfR1-Bio (bispecific antibody, human IgG1, kappa)
heavy: not shown
light: QIVLTQSPAIMSASPGEKVTMTCSASSSIRYIHWYQQRPGTSPKRWIYDTSNLASGVPARFSGSGSGTSYSLTISSMEAEDAATYYCHQRNSYPWTFGGGTRLEIKRTVAAPSVFIFPPSDEQLKSGTASVVCLLNNFYPREAKVQWKVDNALQSGNSQESVTEQDSKDSTYSLSSTLTLSKADYEKHKVYACEVTHQGLSSPVTKSFNRGEC
notes: bivalent anti-TfR1 IgG with an anti-biotin scFv at each CH3 C-terminus; also called anti-TfR1 antibody-Bio
binding result [6]: binds

B6: TfR2-Bio (bispecific antibody, human IgG1, kappa)
heavy: not shown
light: B5 light with M21V, I32M, R38K, N52E, S75N, N91S, W95F, R102K
notes: bivalent anti-TfR2 IgG with an anti-biotin scFv at each CH3 C-terminus; also called anti-TfR2-Bio
binding result [6]: binds

B8: mAb 086 (antibody, V domains shown)
VH: B7 VH
VL: B7 VL
notes: recombinant rabbit IgG; also called rabbit antibody mAb 086
binding result [7]: no binding | selectivity against non-phosphorylated tau peptide [8]: ≥ 100 fold | EC50 [9]: 0.0011 µg/mL | EC50 [10]: 0.266 µg/mL
